Assay [1] addresses Mammalian cell-expressed N6 (mN6), broadly neutralising anti-HIV monoclonal antibody N6 expressed in HEK-293T cells (human). Briefly: SPR.
Assay [2] concerns the target Plant-expressed N6 (pN6), broadly neutralising anti-HIV monoclonal antibody N6 expressed in glycoengineered ΔXF N. benthamiana (human). As to the kind of experiment: SPR. Background: Surface plasmon resonance follows binding to a sensor surface in real time, without labels.

The values that follow come from article PMC8240387.

Sequence of soluble FcγRIIIa (P08637 17-208): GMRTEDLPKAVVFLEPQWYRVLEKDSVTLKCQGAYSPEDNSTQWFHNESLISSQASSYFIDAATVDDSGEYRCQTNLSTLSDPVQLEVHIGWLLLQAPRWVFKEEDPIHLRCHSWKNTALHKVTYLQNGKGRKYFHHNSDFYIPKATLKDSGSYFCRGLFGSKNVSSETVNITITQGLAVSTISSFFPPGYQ
Sequence of Mammalian cell-expressed N6 (mN6), broadly neutralising anti-HIV monoclonal antibody N6 expressed in HEK-293T cells (human) (heavy, as listed by the source, chain 1 of 2): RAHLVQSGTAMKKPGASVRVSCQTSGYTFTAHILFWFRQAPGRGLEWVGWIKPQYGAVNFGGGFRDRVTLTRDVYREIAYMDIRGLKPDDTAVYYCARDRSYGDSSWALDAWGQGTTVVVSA
Sequence of Mammalian cell-expressed N6 (mN6), broadly neutralising anti-HIV monoclonal antibody N6 expressed in HEK-293T cells (human) (light, as listed by the source, chain 2 of 2): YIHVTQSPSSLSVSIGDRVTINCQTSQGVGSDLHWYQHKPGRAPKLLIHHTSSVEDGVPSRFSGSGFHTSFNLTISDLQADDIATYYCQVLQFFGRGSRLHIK
Sequence of Plant-expressed N6 (pN6), broadly neutralising anti-HIV monoclonal antibody N6 expressed in glycoengineered ΔXF N. benthamiana (human) (heavy, as listed by the source, chain 1 of 2): as the sequence (heavy, as listed by the source, chain 1 of 2) above
Sequence of Plant-expressed N6 (pN6), broadly neutralising anti-HIV monoclonal antibody N6 expressed in glycoengineered ΔXF N. benthamiana (human) (light, as listed by the source, chain 2 of 2): as the sequence (light, as listed by the source, chain 2 of 2) above

Take “recombinant, soluble HIV-1 UG37 gp140 (domain or fragment)”: the Kd (usually the equilibrium constant for the complex coming apart) in assay [1] amounted to 0.0171 µM; in assay [2], 0.0119 µM.
Take “soluble FcγRIIIa (from UniProt P08637 17-208) (receptor)”: the Kd is 0.858 µM in assay [1] and 0.0644 µM in assay [2].
